The values below come from patent US20160175358A1.

The target of the assay is δ1 TCR on δ1 T-cells in PBMCs (human) (UniProt O00548). As to the kind of experiment: cell-based or functional assay.
Chain of UniProt O00548 (O00548 18-723, stated change not applied): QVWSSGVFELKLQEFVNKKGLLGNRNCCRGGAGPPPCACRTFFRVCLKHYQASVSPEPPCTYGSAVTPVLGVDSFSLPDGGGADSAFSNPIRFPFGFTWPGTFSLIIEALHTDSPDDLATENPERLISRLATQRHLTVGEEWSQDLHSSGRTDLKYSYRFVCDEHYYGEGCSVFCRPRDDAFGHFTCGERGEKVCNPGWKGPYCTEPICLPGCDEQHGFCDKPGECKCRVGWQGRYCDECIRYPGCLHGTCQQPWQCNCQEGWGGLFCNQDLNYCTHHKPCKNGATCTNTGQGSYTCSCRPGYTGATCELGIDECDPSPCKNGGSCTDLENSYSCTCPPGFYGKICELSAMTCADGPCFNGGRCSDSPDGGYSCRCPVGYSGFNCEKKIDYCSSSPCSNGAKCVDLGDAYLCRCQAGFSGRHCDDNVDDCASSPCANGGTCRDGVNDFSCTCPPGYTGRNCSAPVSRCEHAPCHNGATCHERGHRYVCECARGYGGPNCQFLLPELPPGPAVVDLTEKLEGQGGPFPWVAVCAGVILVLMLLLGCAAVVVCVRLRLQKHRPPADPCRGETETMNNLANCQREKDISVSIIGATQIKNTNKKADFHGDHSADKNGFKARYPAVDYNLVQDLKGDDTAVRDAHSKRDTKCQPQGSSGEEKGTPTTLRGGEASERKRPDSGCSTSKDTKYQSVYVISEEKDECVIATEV

anti-TCR Vδ1 TS-1 antibody returned an induced proliferation, relative to TS8.2 of 3 fold.
